Where no end group is shown, it is not given here.

This is an account of results in patent US20170158761A1 (EWHA UNIVERSITY INDUSTRY COLLABORATION FOUNDATION, published 2017).

The target of the assay is T1, Δ-dTCTP (FL deleted dimer TCTP) (Pan troglodytes (Chimpanzee), UniProt A5A6K2 1-172, disulfide bridge between the C-terminal cysteines (Cys172) of the two chains).
T1 construct: also called A-dTCTP; dimer form of FL domain-deleted TCTP
T1 sequence: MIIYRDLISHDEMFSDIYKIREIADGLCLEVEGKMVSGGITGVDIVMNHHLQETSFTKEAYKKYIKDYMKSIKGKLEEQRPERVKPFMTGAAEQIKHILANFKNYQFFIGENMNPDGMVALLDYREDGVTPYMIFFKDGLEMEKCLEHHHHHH
Put plainly: ELISA: biotinylated dTBP2 (0.01 to 10 µM) on streptavidin plate, TCTP protein at 0.2 µg/ml, anti-HRF rabbit antibody detection. As for the experimental part:
To investigate the affinity to dTBP2 of f-TCTP, Δ-dTCTP, and Del-N11dTCTP of the present invention, biotin was conjugated to the COOH-terminus of dTBP2 known to bind to HRF, followed by purification. The purified protein was immobilized in the plastic well coated with streptavidin, to which f-TCTP, Δ-dTCTP, and Del-N11dTCTP were added. Then, the binding strength of each protein was investigated.
Particularly, 50 μL of the biotinylated dTBTP2 dissolved in a buffer (TBS [25 mM Tris, 150 mM NaCl, pH 7.2], 0.1% BSA, 0.05% Tween-20) at different concentrations of […] was added to Reacti-Bind Streptavidin Coated Polystyrene Plates (PIERCE), followed by reaction at room temperature for 2 hours. The plate was washed with a washing buffer three times. Each of f-TCTP, Δ-dTCTP, and Del-N11dTCTP was dissolved in TBS at the concentration of 0.2 μg/ml. 60 μl of the mixture was added to each well of the plate, followed by reaction for 1 hour. The plate was washed with a washing buffer three times. 100 μl of anti-HRF rabbit antibody (Bio-Rad) diluted in a buffer (1:2000) was added to each well of the plate, which stood at room temperature for 30 minutes. […] Color development was measured at 450 nm and 570 nm using an ELISA reader (Bio-Rad), and affinity was determined by the difference.

For WYVYPSM-biotin (also called biotinylated dTBTP2) [biotinylated dTBP2 (dTCTP binding peptide 2)], the binding result is “binds”.
